Earlier results in article PMC5386376.

Target: Egl1 (Caenorhabditis elegans) (UniProt O61667)
Sequence (O61667 whole entry): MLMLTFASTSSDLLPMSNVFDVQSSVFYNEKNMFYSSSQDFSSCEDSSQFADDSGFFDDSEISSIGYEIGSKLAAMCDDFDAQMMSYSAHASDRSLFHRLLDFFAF

Sequence of Bcl-2 (P10415 whole entry): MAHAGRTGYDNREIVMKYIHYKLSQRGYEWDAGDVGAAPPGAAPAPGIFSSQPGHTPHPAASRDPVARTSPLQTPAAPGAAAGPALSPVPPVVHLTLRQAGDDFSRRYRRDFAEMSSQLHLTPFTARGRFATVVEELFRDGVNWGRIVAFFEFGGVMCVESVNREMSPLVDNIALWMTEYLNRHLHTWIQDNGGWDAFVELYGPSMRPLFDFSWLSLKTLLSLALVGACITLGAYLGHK

Substance: Bcl-2 (from UniProt P10415)
- Kd: 7.1 µM
